The results in this text go back to patent US20240252617A1.

The target in the experiment is monomeric SARS-CoV-2 receptor binding domain (RBD) (SARS-CoV-2) (UniProt P0DTC2).

What is called Kd is the equilibrium constant for the complex coming apart.

Substance DH1047 antigen binding fragment (Fab) showed a Kd of under 0.02 nM.
